The target of the assay is T1, human C5aR (CD88) (human, UniProt P21730 1-350).
T1 sequence (looked up): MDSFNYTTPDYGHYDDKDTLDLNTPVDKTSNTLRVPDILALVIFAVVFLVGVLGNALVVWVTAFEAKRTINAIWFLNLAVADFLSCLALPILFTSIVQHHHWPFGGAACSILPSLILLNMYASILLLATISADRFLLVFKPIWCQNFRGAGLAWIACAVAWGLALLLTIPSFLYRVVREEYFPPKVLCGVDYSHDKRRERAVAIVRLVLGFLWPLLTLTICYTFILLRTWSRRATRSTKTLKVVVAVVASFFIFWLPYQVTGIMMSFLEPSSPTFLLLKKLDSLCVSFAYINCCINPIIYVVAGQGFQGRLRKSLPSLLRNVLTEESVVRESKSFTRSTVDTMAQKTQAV
The assay can be described thus: cell-based or functional assay.

The substance H-Phe-[Orn-Hyp-hle-Pff-Leu] (peptide) showed an IC50 activity group, enzyme release assay below 200 nM. On the same count and under the same terms, the result for “Ac-Phe-Orn-Pro-hle-Bta-2Ni-NH2 (peptide)” reads below 200 nM; that for “Ac-Phe-Ffa-Pro-cha-Bta-Phe-NH2 (peptide)”, below 50 nM. Same read-out and setting: the figure for “Ac-Phe-Dap-Pro-cha-Bta-Phe-NH2 (peptide)” is below 200 nM. Same read-out and setting: the figure for “Ac-Phe-Orn-Pro-hle-Dff-Phe-NH2 (peptide)” is below 200 nM; for Ac-Phe-[Orn-Hyp-hle-Bta-Phe] (peptide) it is below 200 nM; for “Ac-Phe-Orn-Pro-hle-Bta-Aic-NH2 (peptide)” it is below 200 nM. “H-Bal-Phe-[Orn-Pro-hle-Pff-Nle] (peptide)”: the IC50 activity group, enzyme release assay was below 200 nM. The same measure, in the same setting: the result for “Ac-Phe-Orn-Pro-cha-Bta-Opa-NH2 (peptide)” reads below 200 nM; that for “Ac-Phe-Orn-Aze-cha-Mcf-Phe-NH2 (peptide)”, below 200 nM. In turn, “Ac-Phe-Orn-Pro-cha-Bta-Cha-NH2 (peptide)” returned an IC50 activity group, enzyme release assay below 200 nM. On to “Ac-Ser-Phe-Orn-Aze-cha-Bta-Phe-NH2 (peptide)”, for which the IC50 activity group, enzyme release assay was below 20 nM. For “Ac-Phe-Orn-Hyp-hle-Pff-Phe-NH2 (peptide)”, the IC50 activity group, enzyme release assay was below 200 nM.

In the case of H-Phe-[Orn-Ser-hle-Pff-Leu] (peptide), the IC50 activity group, enzyme release assay is below 200 nM. Same read-out and setting: the result for “Ac-Phe-Orn-NMA-cha-Bta-Phe-NH2 (peptide)” reads below 200 nM; that for 3PP-Orn-Aze-cha-Bta-Phe-NH2 (peptide), below 200 nM; that for Ac-Phe-[Orn-Pro-cha-Pff-Nle] (peptide), below 200 nM. Same read-out and setting: the figure for “Ac-Phe-Orn-Pro-ctb-Eaa-Phe-NH2 (peptide)” is below 50 nM; for Ac-Phe-[Orn-Hyp-hle-Mcf-Phe] (peptide) it is below 200 nM. Still for that read-out and setting: the figure for “Ac-Phe-Orn-Pro-cha-Bta-NH-CH(CH2OH)-CH2-Ph (peptide)” is below 200 nM. Consider “Ac-Phe-Orn-Pro-hle-Pff-Pff-NH2 (peptide)”, for which the IC50 activity group, enzyme release assay is below 200 nM.

The substance “Ac-Cit-Phe-Orn-Aze-cha-Bta-Phe-NH2 (peptide)” returned an IC50 activity group, enzyme release assay below 50 nM. Still for that read-out and setting: the figure for “Ac-Phe-Dab-Aze-hle-Bta-Phe-NH2 (peptide)” is below 50 nM; for Ac-Phe-[Orn-Asn-cha-Trp-Nle] (peptide) it is below 200 nM. The same measure, in the same setting: the result for “Ac-Phe-Orn-Pro-hle-Egz-Phe-NH2 (peptide)” reads below 200 nM. Same read-out and setting: the result for H-Phe-[Orn-Hyp-hle-Pff-Hle] (peptide) reads below 200 nM; that for “Ac-Phe-Orn-Pro-hle-Mcf-Cha-NH2 (peptide)”, below 50 nM; that for “Ac-Phe-OrA-Pro-cha-Bta-Phe-NH2 (peptide)”, below 200 nM.

For the substance “Ac-Phe-Orn-NMS-cha-Bta-Phe-NH2 (peptide)”, the IC50 activity group, enzyme release assay is below 200 nM. Still for that read-out and setting: the figure for “Ac-Phe-Eec-Pro-cha-Bta-Phe-NH2 (peptide)” is below 200 nM. Turning to “hrC5a (from UniProt P01031 678-751) (ligand)”, the EC50, agonistic activity, enzyme release assay worked out at 2.4 nM.

With “Ac-Phe-Dab-Pro-cha-Bta-Phe-NH2 (peptide)”, the IC50 activity group, enzyme release assay is below 20 nM. Still for that read-out and setting: the figure for “Ac-Phe-Orn-Pro-hle-6FW-Phe-NH2 (peptide)” is below 200 nM. Still for that read-out and setting: the figure for “Ac-Phe-Cit-Pro-hle-Bta-Phe-NH2 (peptide)” is below 50 nM; for “Ac-Phe-Orn-Pro-ctb-Mcf-Phe-NH2 (peptide)” it is below 200 nM. As to “Ac-Phe-Orn-Pro-cha-Bta-Dff-NH2 (peptide)”, the IC50 activity group, enzyme release assay is below 50 nM. For the substance H-Phe-[Lys-Hyp-hle-Pff-Nle] (peptide), the IC50 activity group, enzyme release assay is below 200 nM. Same read-out and setting: the result for “Ac-Eby-Orn-Pro-cha-Bta-Phe-NH2 (peptide)” reads below 50 nM; that for “Ac-Phe-Orn-Pro-hle-Pff-2Ni-NH2 (peptide)”, below 200 nM. In turn, “Ac-Phe-Orn-Pro-cha-Otf-Phe-NH2 (peptide)” gave an IC50 activity group, enzyme release assay below 200 nM. Regarding Ac-Phe-[Orn-Hyp-cha-Trp-Phe] (peptide), the EC50, agonistic activity, enzyme release assay is above 1430 nM and the IC50 activity group, enzyme release assay was below 50 nM. With “Ac-Phe-Orn-Pro-hle-Eaa-Phe-NH2 (peptide)”, the IC50 activity group, enzyme release assay is below 200 nM. Consider “Ac-Phe-Cit-Hyp-hle-Bta-Phe-NH2 (peptide)”, for which the IC50 activity group, enzyme release assay was below 200 nM. “Ac-Phe-Orn-Aze-hle-Bta-Phe-NH2 (peptide)” had an IC50 activity group, enzyme release assay below 50 nM. Same read-out and setting: the figure for Ac-Phe-[Orn-Hyp-hle-Pff-Nle] (peptide) is below 200 nM; for Bzl-[Orn-Pro-cha-Bta-Nle] (peptide) it is below 200 nM; for Ac-Phe-[Orn-Chy-cha-Trp-Nle] (peptide) it is below 200 nM. On the same count and under the same terms, the figure for H-Phe-[Orn-Hyp-hle-Mcf-Leu] (peptide) is below 200 nM; for H-Phe-[Orn-Hyp-hle-Pff-Nle] (peptide) it is below 200 nM.

For Ac-Thi-[Orn-Pro-hle-Bta-Phe] (peptide), the IC50 activity group, enzyme release assay is below 200 nM. Still for that read-out and setting: the figure for H-Phe-[Orn-Pro-hle-Pff-Nle] (peptide) is below 200 nM. On the same count and under the same terms, the figure for “Ac-Phe-Orn-Pro-cha-Bta-Bhf-NH2 (peptide)” is below 50 nM.

The substance “Ac-Phe-Orn-Pro-hle-Off-Phe-NH2 (peptide)” registered an IC50 activity group, enzyme release assay below 200 nM. On the same count and under the same terms, the result for “Ac-Ala-Phe-Orn-Aze-cha-Bta-Phe-NH2 (peptide)” reads below 50 nM.

Consider H-Phe-[Orn-Hyp-hle-Trp-Leu] (peptide), for which the IC50 activity group, enzyme release assay was below 50 nM. Still for that read-out and setting: the figure for Ac-Phe-[Orn-Pip-hle-Bta-Phe] (peptide) is below 200 nM; for “Ac-Thi-Orn-Pro-cha-Bta-Phe-NH2 (peptide)” it is below 50 nM; for “Ac-Mff-Orn-Pro-hle-Bta-Phe-NH2 (peptide)” it is below 200 nM. H-Phe-Cit-Pro-hle-Bta-Phe-NH2 (peptide) yielded an IC50 activity group, enzyme release assay below 200 nM.

The substance “Ac-Phe-Orn-Pro-hle-Mcf-Pff-NH2 (peptide)” yielded an IC50 activity group, enzyme release assay below 200 nM.

In turn, “Ac-Phe-Fcn-Pro-cha-Bta-Phe-NH2 (peptide)” returned an IC50 activity group, enzyme release assay below 20 nM.

In turn, Ac-Phe-[Orn-Pro-hle-Pff-Phe] (peptide) gave an IC50 activity group, enzyme release assay below 200 nM. Same read-out and setting: the result for “Ac-Phe-Orn-Pro-hle-Egy-Phe-NH2 (peptide)” reads below 200 nM; that for “Ac-Phe-Orn-Pro-hle-Pff-Mmy-NH2 (peptide)”, below 200 nM.

In turn, “Ac-Thr-Phe-Orn-Aze-cha-Bta-Phe-NH2 (peptide)” returned an IC50 activity group, enzyme release assay below 50 nM.

The record behind these values is US7727960B2, “C5a receptor antagonists” (Jerini AG, priority 2003, dated 2010).
